Series [1] concerns the target T1, 5-helix (Human immunodeficiency virus type 1 group M subtype B, UniProt P04578, C598G/DEL583-596/DEL601-623/N624G). The following applies: untagged ligand, E. coli cell lysate, Ni-NTA. How it is done:
Lysate Ni-NTA Pulldown Assay: GLUE-Cpep was cloned into MCS1 of pETDuet-1 using restriction enzymes NcoI and NotI. The 5 helix with a C-terminal His6× tag was cloned into MCS2 of pETDuet-1 using the restriction enzymes NdeI and KpnI. Completed constructs were transformed into BL21s (DE3). Cells containing the co-expressed pair were inoculated and induced as described previously. Cells were spun down and resuspended in lysis buffer (100 mM NaCl, 20 mM Tris pH 7.4, 10 mM (NH4)2SO4), lysed by sonication, and spun down to remove cell debris. Cleared lysate was incubated with 200 μL Ni-NTA agarose resin for 1 hour. Ni-NTA agarose was washed with 8 mL lysis buffer and with 10 mM imidazole. Proteins were eluted with 500 μL lysis buffer containing 400 mM imidazole.

Another series relates to HIV-1 IIIB virus. The series can be described thus: In cellulo HIV-1 infection assay (CEM-GFP cells, flow cytometry). It counts as cell-based. (In general: In flow cytometry, cells or beads pass a laser one at a time.)
The conditions of series [2]: room temperature (~25 °C).
Procedure: Protein Purification: Genes were cloned into pETDuet-1 using restriction enzymes BamHI and PacI, downstream of a His6× tag and transformed into BL21s (DE3). Cells were grown in 2.5 L LB cultures containing 50 μg/mL carbenicillin at 37° C. to OD600=0.5 and induced with 1 mM IPTG at 25° C. overnight. Cells were then collected by centrifugation, resuspended in Tris buffer (20 mM Tris pH 7.4, 100 mM NaCl, 10 mM (NH4)2SO4) and stored at −20° C. Frozen pellets were thawed and sonicated with 1 second pulses for 2 minutes. The lysate was cleared by centrifugation (15,000 rpm 30 min.) and the supernatant was mixed with 1 mL of Ni-NTA agarose resin for 1 hour at 4° C. The resin was collected by centrifugation (4,750 rpm, 10 min.). The resin was sequentially washed with 50 mL of buffer containing 20 mM imidazole, 10 mL buffer containing 50 mM imidazole, and 5 mL buffer containing 100 mM imidazole. […] The proteins were dialyzed against Tris buffer and analyzed for purity by SDS-PAGE shown below. Purified protein concentrations were quantified using Beer's Law at an absorbance of 280 nm, following standard practice (Grimsley, G. R.; Pace, C. N. Current Protocols in Protein Science (2003), 3.1.1-3.1.9).
All proteins were produced recombinantly in a pET vector with a His6× tag. […] Their expression was quantified in mg/L and compared to wtGLUE (FIG. 12A). […]
Series [3] is described as follows: Circular dichroism thermal denaturation at 222 nm. It counts as physicochemical. The note with it: CD 222 nm, Tris buffer pH 7.4, 0 to 90 °C. How it is done:
Circular Dichroism: Proteins were purified as described above. […] Wavelength data are the average of three scans from 250 nm to 200 nm in 1 nm steps at 25° C. Thermal denaturation experiments at 222 nm were run from 0 to 90° C. in two-degree steps at a two-degree/minute rate of increase with one-minute equilibration and data averaging at each temperature. Tm values were obtained from minima of the first derivative of θ versus 1/T plots.
(In general: CD spectra are sensitive to the conformation of chiral molecules.)

Series [4] has as its target T1, 5-helix. The following applies: E. coli cell lysate, FLAG-tagged ligand, Ni-NTA plates. The procedure:
ELISA: Separately, wt-GLUE, GLUE-Cpep, and the C-peptide were cloned into MCS1 of pETDuet-1 with FLAG tags using restriction enzymes NcoI and NotI. The 5-helix with a C-terminal His6× tag was cloned into MCS2 of pETDuet-1 using restriction enzymes NdeI and KpnI. Completed constructs were transformed into BL21s (DE3). Cells containing the co-expressed pair were inoculated and induced as described previously. Cells were spun down and resuspended in lysis buffer (20 mM Hepes pH 7.5, 100 mM NaCl), lysed by sonication, and spun down to remove cell debris. Cleared lysates were incubated on clear Ni-NTA coated plates for 1 hour at room temperature and washed 4× with 200 μL wash buffer (20 mM Hepes pH 7.5, 150 mM NaCl, 0.05% Tween-20, 0.01 mg/mL BSA). HRP-conjugated mouse anti-DDDDK antibody in LiCor Blocking Buffer was incubated for 1 hour at room temperature, followed by 4×200 μL washes. Colorimetry was developed using TMB-One substrate and absorbance was measured at 655 nm on a SynergyMx Microplate Reader.

Series [5] concerns the target T1, 5-helix. It counts as cell-based, HIV. Also noted: N-terminal superpositive GFP tethered to the 5-helix was cloned into pETDuet-1; His6 (N); His6 (C); expressed in transfected cells; host or cells: E. coli BL21 (DE3), pETDuet-1. The following applies: E. coli co-expressing N-spGFP-5-helix and C-spGFP fusion, flow cytometry. The procedure: Split-Superpositive GFP (split-spGFP) Reassembly Assay: Split-spGFP reassembly experiments were performed as previously described (Chapman, A. M.; 3 McNaughton, B. R. Molecular BioSystems 2012, 8, 2036). […] The completed construct was transformed into BL21s (DE3) and the cells were made electrocompetent via standard protocols. Separately, GLUE-Cpep and C-peptide tethered to the C-terminal fragment of superpositive GFP were independently cloned into pBAD using restriction enzymes NcoI and BsrGI. Constructs were electroporated into electrocompetent BL21s (DE3) containing the N-terminal superpositive GFP plasmid, pulsing at 1.8 kV in a 1 mm cuvette. Cells were allowed to recover at 37° C. for 1 hour, and then plated onto agar plates containing carbenicillin and kanamycin. Individual colonies were picked and passaged once, followed by induction at 37° C. with 1 mM IPTG and 0.2% arabinosewhen cultures reached an OD600 of 0.5. After 6 hours, cells were spun down and resuspended in 5 mL PBS. GFP fluorescence was measured by MoFlo Flow Cytometer.

Series [6] concerns the target T1, 5-helix. The following applies: 50 nM, 25% human serum, 37 °C, 4 or 12 h. How it is done:
Colorimetry was developed using TMB-One substrate and absorbance was measured at 655 nm on a SynergyMx Microplate Reader.

By Tm is commonly meant the temperature at which the thermal transition is half complete.

Procedure for HIV-1 IIIB virus: The ELMO grafts were tested as potential inhibitors of HIV-1 in cellulo. The validated assay uses a Lymphoblastoid CD4^+ T-cell line with stably integrated EGFP (CEM-GFP) under the control of the HIV-1 long terminal repeat (LTR) promoter. 293T cells are simultaneously transfected with HIV-1 IIIB virus. The infected cells and non-infected cells are mixed together along with the desired inhibitor. If infection succeeds the number of infected GFP^+ cells increases, which can be measured by flow cytometry (FIG. 18). The inhibition of each ELMO construct was determined in a dose depended manner and compared to C34 and T20 (FIG. 19).

Turning to “C26-ELMO: shortened C-peptide grafted onto N-terminal helix of ELMO (SEQ ID NO:7) (WMEWDREINNYTSLIHSLIEESQNQQKQQRLNRLVE)”, the “co-purification with His6-tagged 5-helix” value in the series with 5-helix [1] is listed as “could also be purified alongside 5-Helix-His6×”. The “inhibition of HIV-1 infection at 250 nM” value in the series on HIV-1 IIIB virus (250 nM) was “some inhibition of infection”.

B1: GLUE-Cpep: helix-grafted GLUE PH domain displaying gp41 C-peptide on its C-terminal helix (grafted helix SEQ ID NO:3) (protein)
chain: MEYWHYVETTSSGQPLLREGEKDIAIDQSVGLYHGKSKILQRQRGRIFLTSQRIIYIDDAKPTQNSLGLELDDLAYVNYSSGFLTRSPALILFFKDPSSSTEFVQLSFRKSDGVWFSWATEIALYTILIHSLIEESQNQQEKNEQELL
B1: in series [2], the “solubility and folding in aqueous solution” value is “soluble and well-folded”. In addition, in series [3], the melting temperature (Tm) was roughly 79 °C. Moreover, the “co-purification with His6-tagged 5-helix” value with 5-helix [1] is listed as “excellent selectivity”. Also, the “ELISA signal / affinity for 5-helix” value with 5-helix [4] is reported as “slightly better affinity than the native C-peptide”. Moreover, the “interaction-dependent GFP reassembly fluorescence” value in the series with 5-helix [5] is on record as “highly fluorescent”. Further, in the series with 5-helix [6], the “ELISA signal for 5-helix after pre-incubation with human serum” value is on record as “remains functional”.

B2: wtELMO: wild-type form of ELMO (Engulfment and Cell Motility) PTB domain, PDB 2VSZ (protein)
chain: PILELKEKIQPEILELIKQQRLNRLVEGTCFRKLNARRRQDKFWYCRLSPNHKVLHYGDLEESPQGEVPHDSLQDKLPVADIKAVVTGKDCPHMKEKGALKQNKEVLELAFSILYDSNCQLNFIAPDKHEYCIWTDGLNALLGK
For the molecule B2, in the series with HIV-1 IIIB virus (dose dependent, compared to C34 and T20), the “inhibition of HIV-1 infection” value is given as “no inhibitory effect”. The “ELISA signal / affinity for 5-helix” value in the series with 5-helix [4] is given as “strong ELISA signal”.
